Two molecules from PMC7447978, “The ASC-1 Complex Disassembles Collided Ribosomes” (Molecular Cell, 2020) can be followed below.

B2: ASCC2 with a C-terminal FLAG tag (natural protein, human, UniProt Q9H1I8 1-757, looked up)
chain: MPALPLDQLQITHKDPKTGKLRTSPALHPEQKADRYFVLYKPPPKDNIPALVEEYLERATFVANDLDWLLALPHDKFWCQVIFDETLQKCLDSYLRYVPRKFDEGVASAPEVVDMQKRLHRSVFLTFLRMSTHKESKDHFISPSAFGEILYNNFLFDIPKILDLCVLFGKGNSPLLQKMIGNIFTQQPSYYSDLDETLPTILQVFSNILQHCGLQGDGANTTPQKLEERGRLTPSDMPLLELKDIVLYLCDTCTTLWAFLDIFPLACQTFQKHDFCYRLASFYEAAIPEMESAIKKRRLEDSKLLGDLWQRLSHSRKKLMEIFHIILNQICLLPILESSCDNIQGFIEEFLQIFSSLLQEKRFLRDYDALFPVAEDISLLQQASSVLDETRTAYILQAVESAWEGVDRRKATDAKDPSVIEEPNGEPNGVTVTAEAVSQASSHPENSEEEECMGAAAAVGPAMCGVELDSLISQVKDLLPDLGEGFILACLEYYHYDPEQVINNILEERLAPTLSQLDRNLDREMKPDPTPLLTSRHNVFQNDEFDVFSRDSVDLSRVHKGKSTRKEENTRSLLNDKRAVAAQRQRYEQYSVVVEEVPLQPGESLPYHSVYYEDEYDDTYDGNQVGANDADSDDELISRRPFTIPQVLRTKVPREGQEEDDDDEEDDADEEAPKPDHFVQDPAVLREKAEARRMAFLAKKGYRHDSSTAVAGSPRGHGQSRETTQERRKKEANKATRANHNRRTMADRKRSKGMIPS
notes: ASCC2, human, subunit of the ASC-1 complex (ASCC); Cloned with primers from the start codon to the last codons before the FLAG tag and stop; Plasmid pUCDM-ASCC2-FLAG-TRIP4; also called ASCC2-FLAG; source: Sf21 insect cells, baculovirus, co-expressed with the other ASCC subunits; purified (NiNTA, anti-FLAG M2, heparin Sepharose); not shown: FLAG, C-terminal, kept

Assay [1] addresses B2. Kind of assay: tandem affinity co-purification (NiNTA, anti-FLAG M2, heparin Sepharose); four subunits co-expressed in Sf21 insect cells; lysate bound to NiNTA through ASCC1-8His (washed at 300 mM NaCl), the eluate bound to anti-FLAG M2 resin through ASCC2-FLAG and eluted with FLAG peptide, then heparin Sepharose; elution fractions shown on a gel; 4°C, 20 mM Tris-HCl 8.0, 10% glycerol. The settings on record: partners not purified.

For assay [2], the target named is T1, ASCC1 with a C-terminal 8-histidine tag (human, UniProt Q8N9N2-2 1-357).
T1 construct: ASCC1, human, subunit of the ASC-1 complex (ASCC); Plasmid pFL-ASCC1-8His-ASCC3, fused by Cre with pUCDM-ASCC2-FLAG-TRIP4; The isoform is inferred from the printed reverse primer; also called ASCC1-8His; source: Sf21 insect cells, baculovirus, co-expressed with the other ASCC subunits; purified (NiNTA, anti-FLAG M2, heparin Sepharose); not shown: His8, C-terminal, kept
T1 sequence (looked up): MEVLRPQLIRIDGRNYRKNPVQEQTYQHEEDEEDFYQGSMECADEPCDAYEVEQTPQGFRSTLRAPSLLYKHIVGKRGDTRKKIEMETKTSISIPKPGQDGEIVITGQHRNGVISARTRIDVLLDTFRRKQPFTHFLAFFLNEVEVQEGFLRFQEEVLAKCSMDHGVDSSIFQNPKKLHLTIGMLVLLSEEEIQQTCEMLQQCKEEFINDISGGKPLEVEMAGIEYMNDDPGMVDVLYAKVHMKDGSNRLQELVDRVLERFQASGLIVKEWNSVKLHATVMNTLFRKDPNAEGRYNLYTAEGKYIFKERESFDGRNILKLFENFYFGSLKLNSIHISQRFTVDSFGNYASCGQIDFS
Described as above. To be noted: partners not purified.

B1: ASC-1 (also known as TRIP4), untagged (natural protein, human, UniProt Q15650 1-581, looked up)
chain: MAVAGAVSGEPLVHWCTQQLRKTFGLDVSEEIIQYVLSIESAEEIREYVTDLLQGNEGKKGQFIEELITKWQKNDQELISDPLQQCFKKDEILDGQKSGDHLKRGRKKGRNRQEVPAFTEPDTTAEVKTPFDLAKAQENSNSVKKKTKFVNLYTREGQDRLAVLLPGRHPCDCLGQKHKLINNCLICGRIVCEQEGSGPCLFCGTLVCTHEEQDILQRDSNKSQKLLKKLMSGVENSGKVDISTKDLLPHQELRIKSGLEKAIKHKDKLLEFDRTSIRRTQVIDDESDYFASDSNQWLSKLERETLQKREEELRELRHASRLSKKVTIDFAGRKILEEENSLAEYHSRLDETIQAIANGTLNQPLTKLDRSSEEPLGVLVNPNMYQSPPQWVDHTGAASQKKAFRSSGFGLEFNSFQHQLRIQDQEFQEGFDGGWCLSVHQPWASLLVRGIKRVEGRSWYTPHRGRLWIAATAKKPSPQEVSELQATYRLLRGKDVEFPNDYPSGCLLGCVDLIDCLSQKQFKEQFPDISQESDSPFVFICKNPQEMVVKFPIKGNPKIWKLDSKIHQGAKKGLMKQNKAV
notes: ASC-1 (TRIP4), human, subunit of the ASC-1 complex (ASCC); Untagged, cloned with primers from the start codon to the stop codon; Plasmid pUCDM-ASCC2-FLAG-TRIP4; source: Sf21 insect cells, baculovirus, co-expressed with the other ASCC subunits; purified (NiNTA, anti-FLAG M2, heparin Sepharose)
The stoichiometry N is the number of molecules, sites or subunits per partner or assembly. With B1, the “stoichiometry N” value in assay [1] and in assay [2] was ~1 each time.

On to B2, for which, in assay [2], the “stoichiometry N” value is ~1.
